Laboratory results reported in article PMC12203367, “Shikimate Kinase-Like 1 Participates in an Ancient and Conserved Role Contributing to Chloroplast Biogenesis in Land Plants” (Molecular Biology and Evolution, 2025).

Substrate: O=C(O)C1=C[C@@H](O)[C@@H](O)[C@H](O)C1
Assay: purified protein
Format: biochemical, Marchantia polymorpha
Conditions: 2.5 mM ATP, 1 mM MgCl2, 50 mM Tris-HCl pH 7.5, 200 mM NaCl, 30 °C, shikimate 0-3 mM

B1: MpSK (Δ113MpSK) (Marchantia polymorpha) (protein)
chain: QYSLELQEDEELLKKKAALVVQQLAGSCIFLVGMMGSGKTTVGKHVSEALGYYFFDSDKLVEESRGKTVAEMFRYGREEEFRNAESEVLEQLSSMVRLVVATGGGAVVRPENWSYLRHGITVWLDVPVDSLAERVVAVGCHSRPLLGVQAHDSAYKQALERLTHILQERADFYASADAVVSVEELARKRGQDINSITPTMIAVQVLEEISKMLERGDRDPSLQY
notes: N-terminal 113 residues (predicted chloroplast transit peptide) removed; cloned from Tak-2 cDNA; pET28a-MOD, C-terminal His6 cleaved by TEV; E. coli BL21-CodonPlus
Km: 782.5 µM | kcat: 1.0 s⁻¹
